Experimental data: the DeepSol protein solubility set

Assay: soluble on expression in E. coli; label from the status in PepcDB or PDB records

| Sequence | soluble on expression in E. coli |
| --- | --- |
| MQFLQNIPPYLFFTGKGGVGKTSISCATAIRLAEQGKRVLLVSTDPASNVGQVFSQTIGNTIQAIASVPGLSALEIDPQAAAQQYRARIVDPIKGVLPDDVVSSINEQLSGACTTEIAAFDEFTGLLTDASLLTRFDHIIFDTAPTGHTIRLLQLPGAWSSFIDSNPEGASCLGPMAGLEKQREQYAYAVEALSDPKRTRLVLVARLQKSTLQEVARTHLELAAIGLKNQYLVINGVLPKTEAANDTLAAAIWEREQEALANLPADLAGLPTDTLFLQPVNMVGVSALSRLLSTQPVASPSSDEYLQQRPDIPSLSALVDDIARNEHGLIMLMGKGGVGKTTMAAAIAVRLADMGFDVHLTTSDPAAHLSMTLNGSLNNLQVSRIDPHEETERYRQHVLETKGKELDEAGKRLLEEDLRSPCTEEIAVFQAFSRVIREAGKRFVVMDTAPTGHTLLLLDATGAYHREIAKKMGEKGHFTTPMMLLQDPERTKVLLVTLPETTPVLEAANLQADLERAGIHPWGWIINNSLSIADTRSPLLRMRAQQELPQIESVKRQHASRVALVPVLASEPTGIDKLKQLAGHHHHHH | soluble |
| ARNKALKADGAFNGVEKEGLFKAMKHYGYEGLAVLVSERGHYSLKKAADVLGLGQEGLVAVKTDANNRIVVDDLKTKIAELKEQNIKPIAVIGVAGTTETGSVDPLSQIAQVCQEHNCHFHVDAAWGGATLMSNHYRHLLEGVELADSVTIDAHKQLYIPMGAGMVLFKDPDAMKSIEHHAQYILRKGSKDLGSHTLEGSRSGMAMLVYAAMHIISRPGYELLIDQSIEKARYFADLIKQQDDFELVSEPELCLLTYRYLPPLIREALDKAEGTQKEKLNELINQLTQFIQKRQRETGKSFVSRTRLNPDQWQRMNTIVFRVVLANPLTTRDILSSVLDEQREIAKQAPSLTAKIEEMASDILGA | not soluble |
| MGSDKIHHHHHHMSLKMKLIYVVESSVPYGANKCLIEIIDRLDKDKHEVMVVGADEGALSSWLRERNVSYVSLNHRLSIYPVLNSRKDYLLWLPRLFRRVALNVIAMVKFFKICKRFKPDIVHTNVGPCSLGYFVATYLGIKHVWHVREYQDLDFGMSFFPNRKAFLKRLKRSDAVICITNSIAAHFHLTDNENLAVINDGVISDEKEIDIIQKENYFLFAGRLEAAKGIEEAIESFFEFCETDSSGISFYVAGDGNFNYLKKLKEKVSKSNFSNRVRFLGFRDDIFALMRMAKALVVASRCEGFGLITAEAMYQGTLVIGRDTGGTSEILKDSKGIHYGFLFNSIDELTKLMHEVVDLSPDEYTKMARSAQRRTLDKYTINRNFREISDVYNTLM | not soluble |
| MSIIIENSGLFSSFQDFGRKGYEHEGVIPSGALDELAHEIANRLVANDKNEATLEMTQKMATIRFTEPALIALTGGNFKAETEHMKIYPNKLYLINEGETLKFNETSRTSRVYLAVGGGFKLEKWLHSASTDFNVEIGGFEGRKLKKGDEIELKHHYSQRHLKLFENLSDKRTTDWGIDGYALSFNYVSDVFHVIKNKGTEDFKKEATRRFTTAEYSVSSKTNRVGMVLDGPQIKAYYDDMPAHQSVKRGTIQVKRDGTPIVLLNDHYTLGSYPQIGTIASYHLTKLAQKPQGSKLKFQFIDIETAEKNLIKYSNWLNQLFHGIEHRMQLEMLKMAGDPLEHHHHHH | not soluble |
| MGSDKIHHHHHHMSTTPTTRLILETLLPHLKVAAAYAHFLQPKIAALPAKGEGNNFFSAALTDADVAIQNLVEVVLLGTFPDIRFYGEEYASSNNTKYFRATELGSKGDYLVTLDPIDGTKFYMDGHSNYQIILSILNSDDFEAVIAISPAQNIYFYALRGEGAFKGTLEMSLEACAPLHITSAKPAILLGWAMNSIGHLLKDRYQVIDIAADYSSDIQIPNLNGILTGDLSGAVIKSGKFIDVAALAFIVKEAGWIVTTLDGSTLPPLHTCQNYSLPGLVIATSKSVHQDLLKAVQSLAV | not soluble |
| MTLKFSVERLVDSEKESEEADVEEQNNLKKLEEDEEDDELCEKSGKNEPLSQTLSYFDVLLPHVQMACSNPFISGIGASGSGDQNLNTGAGGSVWQHPWLELLQSTTAAQFGDVTAGLFLQPLRKNKRIRTAFSASQLIQLEKAFEGNHYVVGNERKQLAAKLSLTETQVKVWFQNRRTKHKRVRLEGSDPNAPMSNDEDDEDDKKSVS | not soluble |
| MRDMIHNISYRLMVYGTEDEEKVIEALRNVIPGATPERESAEGYHGNPITVLRGRLDRRRALREFMEKFTEVFRGRMDELEDRFDENGNLFLRLDKQKALEGVWEPVRHGDAIHLKIKVEAYPAKREVAVENIRKILE | not soluble |
